Test results published in US20240254184A1 (SALUBRIS BIOTHERAPEUTICS, published 2024).

Biological target: T1, recombinant mouse CTLA-4 protein (mouse, UniProt P09793 36-162, limits assumed)
T1 construct: also called CTLA-4 protein from mice
Assay: ELISA, CTLA-4 protein coated on plate, anti-human IgG Fc-peroxidase detection
Description: The binding activity of the anti-CTLA-4-IL-15Ra-sushi-IL-15 fusion protein to recombinant CTLA-4 protein which originated from different species, including human, cynomolgus monkey, rat, and mouse, was determined by Enzyme Linked Immunosorbent Assay (ELISA). Briefly, 96-well plates were coated overnight at 4° C. with […] of CTLA-4 protein diluted in PBS. Plates were blocked with 1% bovine serum albumin (BSA) for an hour at room temperature, and then incubated for additional 2 hours with the anti-CTLA-4-IL-15Ra-sushi-IL-15 fusion protein, Ipilimumab, or human IgG1 isotype control, at a 2-fold serial dilution starting from 1 μg/mL. Goat anti-human IgG (Fc specific)-peroxidase antibody (Sigma, 1:5000 dilution) was added to the plates and incubated for 1 hour at room temperature. After washing, the 3, 3′, 5, 5′-Tetramethylbenzidine (TMB) substrate was added to the wells to develop color and the absorbance at 450 nm was measured using the Multiskan plate reader (Thermo). Optical Density 450 (OD450) values were plotted against antibody concentration.

binding result: no binding
B1: Ipilimumab (antibody, V domains shown)
VH: QVQLVESGGGVVQPGRSLRLSCAASGFTFSSYTMHWVRQAPGKGLEWVTFISYDGNNKYYADSVKGRFTISRDNSKNTLYLQMNSLRAEDTAIYYCARTGWLGPFDYWGQGTLVTVSS
VL: not shown
notes: also called anti CTLA-4 antibody; CTLA-4 antibody
